Reference: a protein production outcome set (Wang et al. 2014)

Test: label from the status in PepcDB records

Sequence | protein production
MTRTTAVGFDRVTKGYGDVRAVDGLTLALHPGETVALLGPNGAGKSTTLDLLLGLRRPDAGTVHVFGGEPREAVVAGRVGAMLQSGGLMDEVTVAELVRLGCALHPRAYPAADVLARAGLTKIADRRVDKLSGGQAQRVRFALATAGDSDLIVLDEPTTGMDVTARQAFWATMREQADQGRTVLFATHYLEEADAIADRVLVLHRGRLLADGTAAEIKARAGTRRISFDLDGGPDASPDASPDGSRNGTVDEATLRALPHLTALDVSGRTVRIQSADADATVYALYGLGLYPRNLEVAGLGLEQAFVALTAAEEAKQP | failed
AQRRNEIQVPDLDGYTTLKCDFHMHSVFSDGLVWPTVRVDEAYRDGLDAISLTEHIEYRPHKQDVVSDHNRSFDLCREQAEKLGILLIKGSEITRAMAPGHFNAIFLSDSNPLEQKDYKDAFREAKKQGAFMFWNHPGWDSQQPDTTKWWPEHTALYQEGCMHGIEVANGHLYMPEAIQWCLDKNLTMIGTSDIHQPIQTDYDFEKGEHRTMTFVFAKERSLQGIREALDNRRTAAYFHELLIGREDLLRPFFEKCVKIEEVSRNEQGVTLSITNVTDLVLKLKKTAHDTLLVYFRDMTLKPHTRYTVRIGFKQGIKGGDVNFEVTNFIVAPDKGLKYTISL | not failed
MHEYSVVSSLIALCEEHAKKNQAHKIERVVVGIGERSAMDKSLFVSAFETFREESLVCKDAILDIVDEKVELECKDCSHVFKPNALDYGVCEKCHSKNVIITQGNEMRLLSLEMLAE | failed
MNKKKIKKLIKSALATTCAVSVITTTSVTAFASNSGENSKEEESNKRVEAEVYPVPQSLEHSSIEGMTLEGEVNIVYHGEQEAATSKRLERTLNENNIAFKVSENVEEGKANIIVSSEGDHCDVCSEGKEENSDVLTHKEGYVLKTSNDINEKGNISIIGSDKDGAYYGVLTLSQILEQSNEENKFAEVVVTDYPEIEFRGFIEGFYGVPWSHEDRMNLMKDTSEYKMNTYIYAPKDDPYHRLSWKELYPEQEAKQIAELAKAGAENNFNFCWTIHPGATLQFTDEDFDALINKFEQLYSLGVRQFGVLFDDTDDWRNGQKQAEWINKIDTEFVKAKGDVAPMIVISARYNSAWGPNMDRYFKPFMQTLHDDIQVMWTGHATMSNVSKEVFEWPKVQTGVDKDVAVWWNYPVNDYCDSRILMAPLHNLNQDLDNVSGFFSNPMNQAEASKVALYSIADYTWNTDAFDYMKSWETSIEKFVPEVKEEFMRFASNTCYLKDDGGASGPFEYDESWYLSEKIDALKEAMKNGQSAVKPAKDLLEEFKLIVSDYESITSKVTNKNLLGEIEQHLNAYKALGEAGIAAMEAIIASEEGNLELWMNSNSLAQEKLDLMETFKIESLESDGPKEYVVSVGTKLLKPLVKESMDYAKEKMGEVVLPKYDPEINTSLTNLKDVEVNFEDGIYSLRDLGEVTLNNGDYVGISLPKATKLRGINLLANNYDNIEIQYSINGLDWVTAKASTNENVLETLDVVDATFIRIINIGENSKNINLEKLEVLPVYKAEPTITENIGTHENYTIDKALDGNMDTKYWSNKPSDSGHNIQIDLGNVMPLYDINTYFGANDFMRNSEYMISEDGVNWTSLGALAYNSQDGKMVASANAEGKMARYIKIQSNGHNYGCWVEIYEIEFNKTAPEFDESAVNLASGTLEGNFNAFYDEDLSTAYEAKSVKDGDSLIYKMSRVTNISELEILQDKNRISEAKVSVKDLGGNWTEIGHLNAQINKLKVDNNITEVKFEFEGSKPAPKIYEIIAREREEQEEIVVSPVKEFKATTINKKNVTVSWEEPENTFGLESYILYKDGKKVSEISSDETSYTFKGLNRHTIYNFKIAAKYSNGEISKKESLTIRTAR | failed
MPTLQLFIYIIGFLFLMYMAWSLWTEKPSNIEEIEPMSAKKQILFALSVSLLNPHAIMDTVGVIGTSASVYDGYDKVVFSLATISVSWIWFVFLAILGRITGKIDKSGKYIVILNKVSSVIVIIVGLIILKNIVGILS | failed
MIIPKMSRHALIGGGTGFIGRNLANHLTKKGYDVTVISRMPGAKRITWHELEKNGIPGSVNAVVNATGQNTLDPTRRWTPGFQQNVWNSRINSSKTLAQAIKSAPQVSSFVNLCGVSHYKPSESKVYTEEDQVQGFDYMSRLCLAWEEAAHTGSEQDCKTTILRCGAVVGHGGGMVQSMWLPFKFGVGGPLGNGNQIMPWIHLHDLCSLIQYIIEKPVPGVVNAVAPEITSNLEFSKAFAKALHRPCIFGVPEFVVQAIFGPERAALVLSGAKVKPQKALSSGFKFQYPSVKEAVTQLTLKG | failed
MMIQGHLFHQDRKRTFRIVEPFGSTTDALIYFHGSQQSGSVGRSFTNRTFDPLPFMVVYPDGVDQHWNDARLGLDENTRHLGIDDVGFFVKLATHLGNTYGIKRIFIVGYSNGGQMVLRLMHEVPKMLSGAATIASNMPVAENTLPQVKTFKTHPVPYLAMAGTADTFSPYEGGDAGIGREHRRGVGMSAFDSAAYIAARNGLTEHRHDVIDDVVSIDTWDGENPVEFWTLNGIGHLVPSGKTYPEFLGPSTTSVIAAEEIGKFFDGVRRR | failed
MNFLSIFVLIPLLMLAGLWAARGIKAIRGVMVTGASALLIASVVLTFMYLGERSAGNTAEMLFRADTLWYAPLHISYSVGVDGISVAMLLLSAVIVFTGTFASWRLQPLTKEYFLWFTLLSMGVFGFFISIDLFTMFMFYEIALIPMYLLIGVWGSGRKEYAAMKLTLMLMGGSAFLLIGILGIYFGSGATTMNLLEIAQLHNIPFAQQCIWFPLTFLGFGVLGALFPFHTWSPDGHASAPTAVSMLHAGVLMKLGGYGCFRIAMYLMPEAANELSWIFLILTGISVVYGAFSACVQTDLKYINAYSSVSHCGLVLFAILMLNQTAATGAILQMLSHGLMTALFFALIGMIYGRTHTRDVRELTGLMKVMPFLSVCYVIAGLANLGLPGLSGFIAEMTIFVGSFQNNDVFHRTLTIIACSSIVITAVYILRLVGKILYGTCTNKHHLALTDATWDERVAVICLIVCVAGLGMAPFWVSHMIGESVLPVVSQLIP | failed
AKRVVFVTVGTTSFDALVKAVVSQNVKDELQKRGFTHLLIQMGRGIFFPTKCDGADGSLVVDYFTFSSSIADYIRSASLVISHAGSGSIFETLKLGKPLIVVVNEDLMDNHQCELAEALEERKHLYYTRPHSLHQTLTKMELGSLVQYTPGDGTPVARIIDRFLG | failed
MIEEQGRVVATEPGAVWVETVRRSTCSSCSANAGCGQGLMQRLGVGAGRARVRALSDLSLRVGDAVVLGIHEDLLLRASVLFYLFPLLGFFVAALLATRAGLVEPLIIVSGLAGLLAAWLLVRRHARRHADDPASQPVVLRALISGPSDSA | failed
MSLKYFKRLSDRERAIFEAGITLGAIYHQFCGTPVSPGTAEEVAKCIERAALLQPCVIDARVEVDVSSEDTDNYGGYTEVSGRNLRVTIVTRCGEWEAVGKLEFIEELNYPLMWVEEIRRVEQEGHHHHHH | not failed
MIGITGVTGKLGSKVAQLISEQGISARHLARNPQRAALYDNAELVQVAFENSLEAVEALKGIDVLLMVSASESPNRLQQHFAFLDAAHEAGVKHIVYTSFYNAATEATFTLARDHAKTEKYIKERGFTYTFLRDNFYLDFFLDLCLNNGEIRGPAGNGKVSAVARQDVSEVATTILAKPDKWKNQLLNMTGPADLSMADIVHFVSEQKGEIIPYIDESIEEAYASRKAWPAQDWEYDAWVSTYTAIKEGKQAGVSSDIERVLGRPATSLEQLVKTIK | failed
MANYPKELPAQTQSRQPGIESEMNPSPVYEYEDYKGADKLKGKVALITGGDSGIGRAVSVAYAKEGADIAIVYKDEHEDAEETKKRVEQEGVKCLLIAGDVGEEEFCNEAVEKTVKELGGLDILVNNAGEQHPKESIKDITSEQLHRTFKTNFYSQFYLTKKAIDYLKPGSAIINTTSINPYVGNPTLIDYTATKGAINAFTRTMAQALVKDGIRVNAVAPGPIWTPLIPATFPEETVAQFGQDTPMGRPGQPVEHVGCYVLLASD | not failed
MAKSGSLSIRVVEGRALPAKDVSGSSDPYCLVKVDDEVVARTATIWRSLSPFWGEEYTVHLPLDFHHLAFYVLDEDTVGHDDIIGKISLSKEAITADPRGIDSWINLSRVDPDEEVQGEVCLAVKLLEDARGRCLRCHVRQARDLAPRDISGTSDPFARVFWGSRSLETSTIKKTRFPHWDEVLELREAPGTTSPLRVELWDWDMVGKNDFLGMVEFTPQTLQQKPPNGWFRLLPFPRAEDSGGSLGALRLKVRLTEDRVLPSQYYQPLMELLLESVQGPAEEDTTSPLALLEELASGDCRQDLATKLVKLFLGRGLAGPFLDYLTRREVARTNDPNTLFRSNSLASKSMEQFMKLVGMRYLHEVLRPVISRVFEEKKYMELDPSKMDLNRSRRISFKGTPTEEQVRETSLGLLTGYLGSVVDAIVSSAGRCPLALRLAFKQLQQCVEKRFPGMEHQVGWVLRGLMRIRLKAPCVQCSRCIDXRNRIWGHRRCLPHGELGLLSPLLQAVQSIGNLGQQLGQGKEQWLAPLHPFLLQSISRVRDFLDQLVDVDGDEEAGFPLTKLMECRGVTKEGRVGXGRWSTSXFPAFRRERQERPGGLCCSERSAAWSWRLRLTGRDIAGLTGQWHAVPGRPQVHSSIPLSCIRAVERVDEGAFQLPHVMQVVTQDGTGASHTTYLQCKNVNDLNQWLSALRKASAPNPGKLAACHPGAFRSGRWTCCLQAERSAALSFHLGVLCNLEHVTXFLCASVFSSGKWSSPLDPKAGGAALYLRNQFCLSLSTLRLKLLEDSSLDTAPDVDPGKDSSAVDGPCAEVLAQQREATTRLLQVLEDLEQAHEEFQKRG | failed
MDALTVGELRRRVHALVLGKRQRVYSGAMFLVEVVHHPELSAMLGLEDNKLLLAMIAQRLQMQSDYFQVARHSSDSFMVWAPDLDPRSARDVAPEVLDALSQPYELRGQPLIVGFRLSGALYAQHGACFDELERSLHIAMLHLDESAGAAWNMFEPSMLEHQRHYQGLEHHHHHH | not failed
MIGKPRGRRGVNLQILPSAMTVLSICAGLTAIKFALEHQPKAAMALIAAAAILDGLDGRVARILDAQSRMGAEIDSLADAVNFGVTPALVLYVSMLSKWPVGWVVVLLYAVCVVLRLARYNALQDDGTQPAYAHEFFVGMPAPAGAVSMIGLLALKMQFGEGWWTSGWFLSFWVTGTSILLVSGIPMKKMHAVSVPPNYAAALLAVLAICAAAAVLAPYLLIWVIIIAYMCHIPFAVRSQRWLAQHPEVWDDKPKQRRAVRRASRRAHPYRPSMARLGLRKPGRRL | failed
MAELLAAGPSGVAGAVARAMERSAPGSGASWYGGDHTDFRDGVFLREVIGVQVVVQEGGTAVPEAMTGLPPRPGGFTGRDRETEDLLRALDPDGAQSAAAPVASVSGLGGIGKTALAVETAHLARERGWFPGGILFIDLHGYDREPVTADRSLRTLLHALGIPPEHMPTTTDERAALYRSTLAVRAGERGGMLVLADNASSAEQVRPLLPGDFRHRVLVTSRDRLPQLGARLLPLDELGTREAYELLDRALRIADPHDGRVGDDPGTTGRLASLCGHLPLALQIAAALLAADPAKPVSELVAELAEAHDRLDHLDDGERSVRAAFELSYRRLPPEQARLLRLLALAPGPEVSDEVVAALVGADRPPVRDQHALARAHLVERGHTRGSWRLHDLVRVFGAGVVARAEGDAARARVLRHYLERARAADARLKPRTEDDEGTRPFRSREEALAWFDAERAGLVAAVQWATDRQLAADAVRLAGALGEYLDWRRRFDDSVTVCGAVCAAARRAGDEAAEAAAWNRTGTALRGNRRLREAYDAHRRAHDLYDALGHDNGRAMALSNLGAILGDVGQVDDAVDAFRLALGLFRRTGDRHSEAGVWNNLALILRKSGRVDEALDALRSALGLYRETGDRPREGRARHNYAVALNARGRTAEAVTACLDSLDICEEFEDWHGAARTLYALGLVHETAGDAERARVRMTQAADAYERAGSPKEAEQARRAARLTGPAPTGTPAPAAPPDRTADSGPPGPRPPGVPGNAGP | failed
MSNDTPFDALWQRMLARGWTPVSESRLDDWLTQAPDGVVLLSSDPKRTPEVSDNPVMIGELLHEFPDYTWQVAIADLEQSEAIGDRFGAFRFPATLVFTGGNYRGVLNGIHPWAELINLMRGLVEPQQERASLEHHHHHH | not failed
